Source: article PMC10127746, “Genetic Dissection of Budding Yeast PCNA Mutations Responsible for the Regulated Recruitment of Srs2 Helicase” (mBio, 2023)

Legend:
Test in all cases: pull-down; GST pulldown; equal molars of GST-Srs2-CT or GST-Rad30-PIP and His6-Pol30 coincubated overnight at 4°C; Western blot with anti-His6 and anti-GST
Details in all cases: both partners purified
[1] = target: T1, His6-tagged Pol30 (S. cerevisiae, UniProt P15873 1-258)
T1 construct: Pol30 (PCNA), S. cerevisiae, POL30 ORF cloned into BamHI-SacI sites of pET30a; also called His6-Pol30; PCNA; source: E. coli BL21, purified (Ni Sepharose)
T1 sequence (looked up): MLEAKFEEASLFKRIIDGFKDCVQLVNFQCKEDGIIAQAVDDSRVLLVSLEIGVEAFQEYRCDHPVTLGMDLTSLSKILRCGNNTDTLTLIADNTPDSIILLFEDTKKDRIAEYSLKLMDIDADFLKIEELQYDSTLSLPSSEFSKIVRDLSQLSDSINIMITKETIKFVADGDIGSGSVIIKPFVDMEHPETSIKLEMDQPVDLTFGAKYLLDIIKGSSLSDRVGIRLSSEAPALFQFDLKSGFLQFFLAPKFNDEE

[2] = target: T2, His6-tagged Pol30-K164R (S. cerevisiae, UniProt P15873 1-258, K164R)
T2 construct: Pol30 (PCNA), S. cerevisiae, POL30 ORF in pET30a, mutant derivative; The methods describe only the wild-type pET-Pol30; source: E. coli BL21, purified (Ni Sepharose)
T2 sequence (looked up): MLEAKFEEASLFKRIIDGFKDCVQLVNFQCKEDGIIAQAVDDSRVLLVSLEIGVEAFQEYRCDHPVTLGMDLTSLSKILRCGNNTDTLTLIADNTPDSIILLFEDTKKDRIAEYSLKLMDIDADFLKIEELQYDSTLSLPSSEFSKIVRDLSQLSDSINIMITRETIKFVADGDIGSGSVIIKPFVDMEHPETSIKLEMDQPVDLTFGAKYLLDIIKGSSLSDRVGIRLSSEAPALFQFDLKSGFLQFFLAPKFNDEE

[3] = target: T3, His6-tagged Pol30-A171D (S. cerevisiae, UniProt P15873 1-258, A171D)
T3 construct: Pol30 (PCNA), S. cerevisiae, POL30 ORF in pET30a, mutant derivative; The methods describe only the wild-type pET-Pol30; source: E. coli BL21, purified (Ni Sepharose)
T3 sequence (looked up): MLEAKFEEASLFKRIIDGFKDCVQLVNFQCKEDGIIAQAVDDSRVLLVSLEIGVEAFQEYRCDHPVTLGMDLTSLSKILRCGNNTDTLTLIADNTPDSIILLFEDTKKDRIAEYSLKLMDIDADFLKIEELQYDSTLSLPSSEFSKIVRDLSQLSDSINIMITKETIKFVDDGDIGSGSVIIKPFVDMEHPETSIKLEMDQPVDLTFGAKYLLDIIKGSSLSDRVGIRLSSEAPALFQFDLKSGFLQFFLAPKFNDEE

[4] = target: T4, His6-tagged Pol30-I128A (S. cerevisiae, UniProt P15873 1-258, I128A)
T4 construct: Pol30 (PCNA), S. cerevisiae, POL30 ORF in pET30a, mutant derivative; source: E. coli BL21, purified (Ni Sepharose)
T4 sequence (looked up): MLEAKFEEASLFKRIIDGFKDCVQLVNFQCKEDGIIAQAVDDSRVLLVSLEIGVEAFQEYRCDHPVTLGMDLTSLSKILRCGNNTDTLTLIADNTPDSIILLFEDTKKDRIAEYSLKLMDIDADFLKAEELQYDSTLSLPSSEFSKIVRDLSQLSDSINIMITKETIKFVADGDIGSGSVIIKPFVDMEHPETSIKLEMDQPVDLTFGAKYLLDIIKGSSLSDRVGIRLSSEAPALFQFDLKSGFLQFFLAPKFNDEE

Measured: binding result

B1: GST-tagged Rad30-PIP (domain or fragment, S. cerevisiae, UniProt Q04049 515-632, looked up)
chain: VVDMFGNQVHTFKSSAGKEDEEKTTSSKADEKTPKLECCKYQVTFTDQKALQEHADYHLALKLSEGLNGAEESSKNLSFGEKRLLFSRKRPNSQHTATPQKKQVTSSKNILSFFTRKK
notes: Rad30 (DNA polymerase eta), S. cerevisiae, residues 515 to 632, cloned into BamHI-EcoRI sites of pGEX6; also called GST-Rad30-PIP; Rad30-PIP domain; source: E. coli BL21, purified (glutathione Sepharose)
binds: [1] | [2] | [3] | [4]

B2: GST-tagged Srs2 C-terminal domain (Srs2-CT) (domain or fragment, S. cerevisiae, UniProt P12954 1107-1174, looked up)
chain: HNPDDTTVDNRPIISNAKFLADAAMKKTQKFSKKVKNEPASSQMDIFSQLSRAKKKSKLNNGEIIVID
notes: Srs2 DNA helicase, S. cerevisiae, residues 1107 to 1174, cloned into BamHI-EcoRI sites of pGEX6; Holds the atypical PIP box and the SIM; also called GST-Srs2-CT; Srs2 C terminus; source: E. coli BL21, purified (glutathione Sepharose)
binds: [1] | [2] | [4]
